Source: patent publication US20180244795A1 (DEBIOPHARM INTERNATIONAL S A, published 2018)

What was measured:
Human CD37 = target: T1, Human CD37 (human, UniProt P11049 1-281); assay: IHC on FFPE CD37-positive samples (human tonsil, Daudi, Ramos, Namalwa cells)
T1 construct: Endogenous CD37 in formalin fixed paraffin embedded Daudi, Ramos and Namalwa cell pellets and human tonsil (IHC); also called GP52-40; tetraspanin-26
T1 sequence: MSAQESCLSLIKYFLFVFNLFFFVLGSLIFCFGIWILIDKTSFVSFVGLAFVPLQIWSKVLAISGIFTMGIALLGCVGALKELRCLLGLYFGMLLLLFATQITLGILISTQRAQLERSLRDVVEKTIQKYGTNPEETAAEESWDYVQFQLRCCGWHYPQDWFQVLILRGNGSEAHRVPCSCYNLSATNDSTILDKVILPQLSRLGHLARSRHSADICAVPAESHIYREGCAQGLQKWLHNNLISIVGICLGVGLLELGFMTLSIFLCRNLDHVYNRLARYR
Protocol: Slides were incubated with ImmunoGen, Inc. generated 1B11-2 antibody, Leica/Novocastra NCL-CD37 antibody (clone CT1) or Leica/Novocastra muIgG1 control antibody at varying concentrations for 15 minutes. Bound antibodies were detected by incubation with the Leica Bond Refine detection system. Following the application of the antibodies, slides were incubated with Post Primary Reagent (rabbit anti-mouse IgG) for 8 minutes, Polymer (goat anti-rabbit polymer) for 8 minutes, and DAB (3,3-diaminobenzidine tetrahydrochloride) for 10 minutes. […] Slides were counterstained with hematoxylin for 5 minutes.
Purified antibody from clone 1B11-2 diluted at 8.4 μg/mL, 4.2 μg/mL, and 2.1 μg/mL in Leica Antibody Diluent (Tris-buffered saline, surfactant, and protein stabilizer with 0.35% ProClin™ 950) was used to stain CD37-positive control samples (human normal tonsil, Daudi cells, Ramos cells, and Namalwa cells). The antibody was evaluated for CD37 specificity as measured by acceptable membrane staining and specificity in CD37-positive samples. This clone was also compared with the NCL-CD37 mouse mAb (clone CT1) diluted to 4.2 μg/mL in Leica Antibody Diluent using the same CD37 positive human tissue and cells. […] A suitable staining concentration of 4.2 μg/mL was experimentally determined for 1B11-2.

[1] = target: T2, hCD37-ECD-S2-Fc (amino acids 107 to 109 and 138 to 235 of human CD37 fused to murine IgG2a Fc-domain) (human); assay: ELISA, native hCD37-ECD-S2-Fc coated on the plate, purified antibody titrated
T2 construct: Produced in HEK-293T cells; It lacks the S1 segment (amino acids 110-137) of the CD37 large extracellular domain; also called truncated hCD37-ECD-S2-Fc protein
T2 chain: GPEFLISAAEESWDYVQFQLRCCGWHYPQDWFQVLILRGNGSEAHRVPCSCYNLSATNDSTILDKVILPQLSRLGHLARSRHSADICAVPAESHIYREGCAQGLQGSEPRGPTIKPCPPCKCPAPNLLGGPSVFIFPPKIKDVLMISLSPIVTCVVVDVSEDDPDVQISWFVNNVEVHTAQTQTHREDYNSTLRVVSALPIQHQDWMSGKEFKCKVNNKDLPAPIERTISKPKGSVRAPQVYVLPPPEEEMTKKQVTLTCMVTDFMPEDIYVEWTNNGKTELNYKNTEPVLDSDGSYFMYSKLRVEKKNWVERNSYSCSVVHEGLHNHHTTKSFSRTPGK
Protocol: (§1) Antibody from 1B11-2 was purified using standard protein-A chromatography. An anti-CD37 antibody sold by Leica Biosystems (product code NCL-CD37) was used for comparison. The binding of the anti-CD37 antibodies was examined by ELISA with recombinant CD37 proteins used as the antigen. Each recombinant protein was immobilized at approximately 25-100 ng/well on microtiter plates in Sodium bicarbonate coating buffer (Sigma-Aldrich) using either native or denatured conditions as described above. Plates were washed once with PBS supplemented with 0.05% Tween-20 and blocked with PBS supplemented with 1% bovine serum albumin (BSA). Plates were washed three times with PBS supplemented with 0.05% Tween-20 and purified antibodies were added to the plates. Plates were incubated for one hour at room temperature, washed three times as above, and incubated with HRP-labeled goat anti-murine secondary antibody (Jackson ImmunoResearch, diluted at 1:5,000) for one hour at room temperature. The plates were washed three times as above, and bound HRP-conjugated antibody was detected by adding the HRP-substrate TMB (Bio-FX). Plates were incubated for approximately 10 minutes, and then color development was stopped with stop solution (Bio-FX). Absorbance at 450 nm was measured for each plate in a multiplate reader. Representative results are shown in FIG. 2 for binding to native hCD37-Fc-LAGA and hCD37-LEL. […]

[2] = target: T3, hCD37-Fc-LAGA (amino acids 107 to 235 of human CD37 fused to human IgG1 Fc-domain) (human); assay: ELISA, native hCD37-Fc-LAGA coated on the plate, purified antibody titrated (left panel)
T3 construct: Produced in HEK-293T cells
Protocol: as §1

[3] = target: T4, hCD37-ECD-Fc (amino acids 107 to 235 of human CD37 fused to murine IgG2a Fc-domain) (human); assay: Western blot after denaturing, reducing SDS PAGE (Gel C), primary 1B11-2, secondary anti-mouse F(ab)2-HRP
T4 construct: Produced in HEK-293T cells
T4 chain: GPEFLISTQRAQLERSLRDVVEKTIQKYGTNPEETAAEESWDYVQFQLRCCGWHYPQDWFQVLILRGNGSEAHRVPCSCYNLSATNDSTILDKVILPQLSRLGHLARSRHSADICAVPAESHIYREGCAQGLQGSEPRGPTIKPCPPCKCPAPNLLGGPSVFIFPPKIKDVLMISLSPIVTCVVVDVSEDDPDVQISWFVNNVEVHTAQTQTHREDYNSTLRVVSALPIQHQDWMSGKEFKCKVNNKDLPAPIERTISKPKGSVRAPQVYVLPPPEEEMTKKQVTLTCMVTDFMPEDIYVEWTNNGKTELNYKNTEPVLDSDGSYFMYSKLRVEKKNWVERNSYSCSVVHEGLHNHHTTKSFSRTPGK
Protocol: The ability to recognize different preparations of Fc-fused CD37-ECDs was tested in denaturing SDS PAGE followed by Western blotting for 1B11-2 (left panel), in direct comparison with a commercially available anti-CD37 antibody (Leica; right panel). Fc-fused CD37-ECD preparations were denatured by incubation in Laemmli buffer containing 70mM β-mercapto-ethanol at 100° C. for 10 min, and were separated by SDS polyacrylamide gel electrophoresis, followed by electrophoretic transfer to PVDF membranes. Membranes were blocked with 5% non-fat milk in Tris-buffered saline with 0.1% Tween-20 (TBST) for 1 hour at room temperature. Primary antibodies were applied overnight, followed by detection with secondary anti-mouse F(ab)₂ conjugated to horse radish peroxidase for 1 h at room temperature. Blots were developed using enhanced chemiluminescence detection following standard procedures. While the Leica antibody recognizes all three Fc-CD37 ECD preparations, the 1B11-2 antibody of the invention recognizes only hCD37-ECD-Fc and hCD37-Fc-LAGA, but not hCD37-ECD-S2-Fc. The hCD37-ECD-S2-Fc construct is missing the S1 segment (amino acids 110-137) of the CD37 ECD. Thus, a region of amino acids 110-137 is critical for epitope recognition by 1B11-2, but not by the Leica antibody.

B1: muCD37-1B11-2 mouse monoclonal anti-human CD37 antibody (antibody, mouse IgG1, kappa, V domains shown)
VH: EVQLLQSGPELVKPGASVKISCKASGYSFTGYFMNWVIQSHGKGLEWIGRINPYNGDTFYNQKFKGKATLTVDKSSTTAHMELLSLTSEDSAVYYCGSRGIVASSRFFDVWGAGTSVIVSS
VL: SIVMTQTPKFLLVSAGDRVTITCKASQGVSNDVDWYQQKPGQSPKLLIYYASNRYTGVPDRFTGSGYGTDFTFSISTVQAEDLAVYFCHQDYTSPTFGGGTKLEIKR
notes: Murine IgG1/kappa from hybridoma; also called antibody 1B11-2; CD37 1B11-2 Mouse mAb
Human CD37
  binding result: binds
[1]
  binding result: no binding (tested: 1e-7 M)
[2]
  EC50 (read off the curve): ~0.1 nM
[3]
  binding result: binds
